Measurements published in patent US20240059763A1 (ZHUHAI TRINOMAB PHARMACEUTICAL, published 2024).

Legend:
[1] = biological target: T1, RSV Pre-F protein (pre-fusion conformation of the F protein of RSV A2 strain) (RSV A2 strain, UniProt P03420 26-513); assay: ELISA, RSV Pre-F coated on the plate, TRN1021 in 3-fold dilutions, anti-human IgG-HRP, OD450
T1 construct: Recombinant trimeric protein; also called pre-fusion F protein; antigen Pre-F protein

[2] = biological target: T1, RSV Pre-F protein (pre-fusion …); assay: SPR (Biacore X100), TRN1021 captured on anti-human IgG (Fc), Pre-F as analyte at 2.5-40 µg/mL

T1 sequence (P03420 26-513): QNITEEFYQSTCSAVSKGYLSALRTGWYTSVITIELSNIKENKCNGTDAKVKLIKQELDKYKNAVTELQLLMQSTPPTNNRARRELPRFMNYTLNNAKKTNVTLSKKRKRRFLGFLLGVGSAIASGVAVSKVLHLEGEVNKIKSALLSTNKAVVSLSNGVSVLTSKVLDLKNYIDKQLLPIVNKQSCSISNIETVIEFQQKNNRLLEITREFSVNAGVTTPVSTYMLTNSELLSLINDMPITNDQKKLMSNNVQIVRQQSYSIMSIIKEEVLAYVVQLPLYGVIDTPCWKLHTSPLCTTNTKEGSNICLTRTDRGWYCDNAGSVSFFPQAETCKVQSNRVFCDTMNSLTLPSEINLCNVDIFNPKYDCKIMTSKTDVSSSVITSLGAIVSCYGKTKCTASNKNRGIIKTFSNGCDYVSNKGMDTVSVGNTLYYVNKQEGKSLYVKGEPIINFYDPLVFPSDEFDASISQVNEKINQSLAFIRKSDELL

B1: fully human anti-RSV monoclonal antibody TRN1021 (antibody, V domains shown)
VH: QVQLVQSGAEVKKPGESLKISCQGSGYSFNNYYIGWVRQMPGKGLEWMVIIYPGDSDTKYSPSFQGQVTVSADRSINTAYLQWSSLRASDTAVYYCVRMDTVTTGAGVGFNWFFDLWGRGTLVTVSS
VL: EIVLTQSPATLSVSPGERATLSCRASQSVTSYLAWYQQKPGQAPRLLIYGASSRATGVPARFSGSGSETEFTLTISSLQSEDFAVYYCQQYNDWPAITFGQGTRLENK
notes: It was expressed in HEK293 cells as a whole human antibody, purified on Protein A, detected with anti-human IgG and captured through anti-human IgG (Fc); also called fully human anti-RSV-F protein monoclonal antibody TRN1021
With B1 the “EC50 (read off the curve)” value [1] was roughly 8 ng/mL and the Kd [2] was roughly 1 nM.
